Source: patent US20070178093A1

Key:
[1] = target: human glucocorticoid-induced tumor necrosis factor family-related receptor (TEASR) (human) (UniProt Q9Y5U5); test: cell-based or functional assay
[2] = target: fusion protein comprising the extracellular domain of hTEASR and the cytoplasmic region of Fas, expressed on Ba/F3 cells (human) (UniProt Q9Y5U5); test: cell-based or functional assay

| Substance | proliferation of CD4+ T cells in the presence of CD32/CD58/CD80 feeder L cells [1] [fold] | proliferation of CD8+ T cells in the presence of CD32 feeder L cells [1] [fold] | apoptotic cell death, 51Cr release from transfected Ba/F3 cells (in the presence of control IgG1) [2] [% release] |
| --- | --- | --- | --- |
| hTEASR-L-Ig fusion protein (from UniProt Q9UNG2 49-177) (Fc fusion) | 2.5 | 5.6 | – |
| human TEASR ligand (TEASR-L) (from UniProt Q9UNG2 1-177) | – | – | 23 |
